One assay deals with T1, RXFP1 E67A^ins (Homo sapiens, UniProt Q9HBX9, INS89A).
T1 construct: transiently transfected human embryonic kidney (HEK) 293T cells expressing full-length RXFP1 and mutants; expressed in transfected cells; host or cells: HEK293T
T1 sequence (Q9HBX9 with tags, fused parts or gaps INS89A limits assumed): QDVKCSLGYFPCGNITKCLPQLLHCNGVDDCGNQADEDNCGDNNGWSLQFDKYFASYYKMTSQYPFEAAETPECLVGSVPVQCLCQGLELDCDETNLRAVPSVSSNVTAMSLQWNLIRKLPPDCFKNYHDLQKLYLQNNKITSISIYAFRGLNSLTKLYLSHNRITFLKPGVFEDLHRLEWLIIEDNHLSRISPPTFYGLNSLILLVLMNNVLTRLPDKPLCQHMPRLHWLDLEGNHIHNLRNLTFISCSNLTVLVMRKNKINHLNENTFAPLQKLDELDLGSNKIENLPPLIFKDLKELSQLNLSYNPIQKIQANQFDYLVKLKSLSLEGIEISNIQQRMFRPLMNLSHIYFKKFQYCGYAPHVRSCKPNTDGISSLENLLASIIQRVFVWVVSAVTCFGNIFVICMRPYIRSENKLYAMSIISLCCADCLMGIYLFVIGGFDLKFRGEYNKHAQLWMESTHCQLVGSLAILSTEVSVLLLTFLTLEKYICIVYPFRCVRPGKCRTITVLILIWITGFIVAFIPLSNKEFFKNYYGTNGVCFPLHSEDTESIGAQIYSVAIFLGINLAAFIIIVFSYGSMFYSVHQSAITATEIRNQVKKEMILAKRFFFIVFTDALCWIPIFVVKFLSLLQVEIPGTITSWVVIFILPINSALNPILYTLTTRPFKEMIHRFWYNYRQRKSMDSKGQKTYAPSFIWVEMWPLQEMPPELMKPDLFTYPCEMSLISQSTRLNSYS
Nature of the assay: cAMP activity assay (pCRE β-galactosidase reporter), transfected HEK293T cells. Format: cell-based. Conditions: construct E67A^ins, ±s.e.m. The gist of the method: (§1)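 HEK293T cells transfected with mutant RXFP1 and pCRE β-galactosidase reporter, stimulated with H2 relaxin in minimal media/1% DMSO. β-Galactosidase read with chlorophenol red-β-D-galactopyranoside at 570 nm; responses pooled from ≥3 triplicate experiments as % of 5 μM forskolin maximum.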

For a further assay, the target named is T2, RXFP1 F50A (Homo sapiens, UniProt Q9HBX9, F72A).
T2 construct: expressed in transfected cells; host or cells: HEK293T
T2 sequence (Q9HBX9 23-757 F72A limits assumed): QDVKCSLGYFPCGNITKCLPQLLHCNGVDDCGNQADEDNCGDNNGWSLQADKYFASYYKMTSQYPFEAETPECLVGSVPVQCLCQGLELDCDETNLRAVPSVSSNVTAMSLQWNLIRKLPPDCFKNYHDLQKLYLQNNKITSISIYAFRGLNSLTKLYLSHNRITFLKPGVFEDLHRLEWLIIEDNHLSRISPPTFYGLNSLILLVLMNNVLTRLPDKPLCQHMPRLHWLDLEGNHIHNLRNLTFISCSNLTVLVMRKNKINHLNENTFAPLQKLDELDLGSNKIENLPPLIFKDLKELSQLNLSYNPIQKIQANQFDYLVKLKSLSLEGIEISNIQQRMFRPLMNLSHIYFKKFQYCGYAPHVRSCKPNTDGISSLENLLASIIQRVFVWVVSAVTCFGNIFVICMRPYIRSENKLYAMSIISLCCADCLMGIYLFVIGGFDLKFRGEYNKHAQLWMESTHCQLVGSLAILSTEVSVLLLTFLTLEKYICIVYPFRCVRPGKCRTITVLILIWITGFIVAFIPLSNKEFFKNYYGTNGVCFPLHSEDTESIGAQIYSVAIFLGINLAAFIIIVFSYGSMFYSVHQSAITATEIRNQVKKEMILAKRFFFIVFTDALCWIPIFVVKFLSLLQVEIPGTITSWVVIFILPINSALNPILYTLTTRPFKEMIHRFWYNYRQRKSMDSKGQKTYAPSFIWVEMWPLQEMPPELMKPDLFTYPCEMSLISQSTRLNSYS
The description is as above. Format: cell-based. The following applies: construct F50A, ±s.e.m. The gist of the method:
as §1

For another assay, the target named is T3, RXFP1 F50A^ins (Homo sapiens, UniProt Q9HBX9, INS72A).
T3 construct: transiently transfected human embryonic kidney (HEK) 293T cells expressing full-length RXFP1 and mutants; expressed in transfected cells; host or cells: HEK293T
T3 sequence (Q9HBX9 with tags, fused parts or gaps INS72A limits assumed): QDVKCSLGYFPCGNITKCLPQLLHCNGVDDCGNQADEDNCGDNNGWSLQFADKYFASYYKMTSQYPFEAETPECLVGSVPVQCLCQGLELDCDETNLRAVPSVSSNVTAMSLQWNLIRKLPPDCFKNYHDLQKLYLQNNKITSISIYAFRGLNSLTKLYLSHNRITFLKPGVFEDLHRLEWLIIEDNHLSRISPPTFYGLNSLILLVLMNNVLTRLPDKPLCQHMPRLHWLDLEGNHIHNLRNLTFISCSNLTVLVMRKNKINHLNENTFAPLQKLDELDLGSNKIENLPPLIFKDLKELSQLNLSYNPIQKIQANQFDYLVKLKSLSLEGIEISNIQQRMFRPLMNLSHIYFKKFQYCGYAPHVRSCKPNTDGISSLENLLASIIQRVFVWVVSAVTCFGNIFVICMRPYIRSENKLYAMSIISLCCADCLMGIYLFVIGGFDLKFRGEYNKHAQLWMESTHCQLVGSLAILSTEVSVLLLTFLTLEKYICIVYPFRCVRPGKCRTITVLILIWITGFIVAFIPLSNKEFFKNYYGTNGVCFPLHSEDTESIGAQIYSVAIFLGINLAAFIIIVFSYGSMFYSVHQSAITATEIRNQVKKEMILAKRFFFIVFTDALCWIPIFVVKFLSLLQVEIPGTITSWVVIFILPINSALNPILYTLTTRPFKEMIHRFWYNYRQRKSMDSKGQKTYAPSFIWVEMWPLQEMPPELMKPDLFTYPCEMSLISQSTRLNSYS
Description: Eu-H2 relaxin saturation binding assay, transfected HEK293T cells. The following applies: F50A^Ins-RXFP1 versus wild-type RXFP1.

Where [1] appears, read: percentage of maximum response to 5 μM Forskolin.

For “H2 relaxin: two-chain 6-kDa peptide hormone structurally related to insulin; recombinant human gene-2 H2 relaxin provided by Corthera”, the “H2 relaxin pEC50” value with RXFP1 E67A^ins (cAMP reporter) was 11.32±0.04 (3); with RXFP1 F50A (cAMP reporter) it was 9.45±0.07 (4). Besides, the “H2 relaxin Emax” value is on record as 110.15±6.43(3) % in the assay with RXFP1 E67A^ins (setting [1]) and 91.9±2.1 (4) % in the assay with RXFP1 F50A (setting [1]). Moreover, the “loss of binding to H2 relaxin” value with RXFP1 F50A^ins came out at 25 fold.
